From IntAct's records for PubMed 18820298

B1: CCAAT/enhancer-binding protein beta (Homo sapiens), P17676-2 (parent)
chain: MEVANFYYEADCLAAAYGGKAAPAAPPAARPGPRPPAGELGSIGDHERAIDFSPYLEPLGAPQAPAPATATDTFEAAPPAPAPAPASSGQHHDFLSDLFSDDYGGKNCKKPAEYGYVSLGRLGAAKGALHPGCFAPLHPPPPPPPPPAELKAEPGFEPADCKRKEEAGAPGGGAGMAAGFPYALRAYLGYQAVPSGSSGSLSTSSSSSPPGTPSPADAKAPPTACYAGAAPAPSQVKSKAKKTVDKHSDEYKIRRERNNIAVRKSRDKAKMRNLETQHKVLELTAENERLQKKVEQLSRELSTLRNLFKQLPEPLLASSGHC

Variants of: B1
Settings: with hdac4_human HDAC4, P56524
Chain of hdac4_human HDAC4, P56524 (P56524 whole entry): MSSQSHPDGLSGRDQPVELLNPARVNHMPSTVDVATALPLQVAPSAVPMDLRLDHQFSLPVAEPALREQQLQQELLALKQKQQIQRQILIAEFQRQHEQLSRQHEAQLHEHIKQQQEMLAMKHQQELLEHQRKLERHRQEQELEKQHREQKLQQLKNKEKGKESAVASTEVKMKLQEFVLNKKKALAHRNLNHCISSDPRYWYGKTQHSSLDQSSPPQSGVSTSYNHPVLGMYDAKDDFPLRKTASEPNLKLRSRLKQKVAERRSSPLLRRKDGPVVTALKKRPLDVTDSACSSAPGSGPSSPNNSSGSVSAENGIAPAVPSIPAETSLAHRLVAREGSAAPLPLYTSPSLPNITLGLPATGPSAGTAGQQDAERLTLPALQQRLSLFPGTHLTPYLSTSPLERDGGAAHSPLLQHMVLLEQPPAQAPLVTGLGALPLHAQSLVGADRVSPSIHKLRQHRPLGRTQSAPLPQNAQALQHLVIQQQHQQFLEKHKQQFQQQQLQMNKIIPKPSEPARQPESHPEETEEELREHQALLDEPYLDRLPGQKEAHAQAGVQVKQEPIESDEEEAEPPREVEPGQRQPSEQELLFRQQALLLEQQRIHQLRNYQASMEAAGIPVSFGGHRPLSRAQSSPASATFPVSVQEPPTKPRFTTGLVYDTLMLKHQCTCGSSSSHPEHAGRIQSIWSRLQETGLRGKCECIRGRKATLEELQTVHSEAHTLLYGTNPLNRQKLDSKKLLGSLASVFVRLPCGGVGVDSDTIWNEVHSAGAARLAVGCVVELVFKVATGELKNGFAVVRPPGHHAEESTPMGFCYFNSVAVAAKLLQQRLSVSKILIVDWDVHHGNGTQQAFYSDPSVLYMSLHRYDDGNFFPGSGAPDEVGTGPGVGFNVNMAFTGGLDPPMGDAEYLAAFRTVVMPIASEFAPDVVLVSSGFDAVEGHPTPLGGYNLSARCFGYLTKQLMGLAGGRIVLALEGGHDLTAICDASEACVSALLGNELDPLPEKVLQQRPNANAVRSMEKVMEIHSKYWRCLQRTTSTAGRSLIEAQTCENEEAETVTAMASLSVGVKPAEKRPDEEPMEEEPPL

effect of a mutation on the interaction | Variant
with no effect | K151A
